Here are results for 8 molecules from PMC11366018 (Nature Communications, 2024).

Experiment [1] concerns the target T1, SARS-CoV-2 RBD (WT) (SARS-CoV-2 Wuhan-Hu-1 (wildtype), UniProt P0DTC2). The experiment can be described thus: BLI. The settings on record: both partners purified.
The target of experiment [2] is Bat CoV RaTG13 RBD (Bat coronavirus RaTG13, UniProt A0ABF7PLN6). The experiment can be described thus: BLI. The settings on record: both partners purified.
Experiment [3] has as its target Pangolin CoV GD1 RBD (Pangolin coronavirus Guangdong, isolate …, strain). The experiment can be described thus: BLI. Particulars: both partners purified.
In experiment [4] the target is Bat CoV RaTG13 RBD (Bat coronavirus RaTG13, UniProt A0ABF7PLN6, strain). The experiment is described as follows: BLI. Particulars: both partners purified.
Experiment [5] has as its target T1, SARS-CoV-2 RBD (WT). The experiment can be described thus: BLI. Particulars: both partners purified. The source holds these as a separate data set.
Experiment [6] addresses SARS-CoV-1 RBD (SARS-CoV-1, strain , UniProt P59594). The experiment is described as follows: BLI. The settings on record: both partners purified.
For experiment [7], the target named is T2, wildtype SARS-CoV-2 spike receptor binding domain (RBD), residues 319-541 (SARS-CoV-2, wildtype (ancestral), UniProt P0DTC2). The experiment is described as follows: cell-based or functional assay.
Experiment [8] addresses T2, wildtype SARS-CoV-2 spike receptor …. The experiment is described as follows: BLI. The settings on record: both partners purified.

B1: R1-26 (antibody, V domains shown)
VH: EVQLVESGGGLVQPGGSLRLSCAASGFTFSSYWMSWVRQAPGKGLEWVANIKQDGSEKYYVDSVKGRFTISRDNAKNSLYLQMNSLRAEDTAVYYCARGQLGPWVGVDYWGQGTLVTVSS
VL: NFMLTQPHSVSESPGKTVTISCTGSSGSIASNYVQWYQQRPGSAPTTVIYEDNQRPSGVPDRFSGSIDSSSNSASLTISGLKTEDEADYYCQSYDSSNWVFGGGTQLTVL
For B1, in experiment [1], the dissociation constant Kd (commonly the constant that tells how readily two partners part at equilibrium) stood at 3.84 nM; the koff – broadly, a measure of how fast the partners let go of each other – is 0.00177 s⁻¹; the kon (commonly the rate constant with which the complex forms) was 460000 M⁻¹ s⁻¹.

B2: H18 (recombinant mAb, IgG) (antibody, V domains shown)
VH: QVQLQESGPGLVKPSETLSLTCTVSGGSVSSGGYFWSWIRQPPGKGLEWIGCIYYSGSTNYNPSLKSRVTISVDTSKDQFSLKLSSVTAADTAVYYCARQLWLRGRFDYWGQGTLVTVSS
VL: NFMLTQPHSVSESPGKTVTISCTRSSGSIASNYVQWYQQRPGSSPTTVIYEDNQRPSGVPDRFSGSIDSSSNSASLTISGLKTEDEADYYCQSYDSSNVVFGGGTKLTVL
Regarding B2, in experiment [2], the binding result was “binds”.

B3: H16 (antibody, V domains shown)
VH: QLQLQESGPGLVKPSETLSLTCTVSGGSISSSSYYWGWIRQPPGKGLEWIGSIYYSGSTYYNPSLKSRVTISVDTSKNQFSLKLSSVTAADTAVYYCARREWLRGPFDYWGQGTLVTVSS
VL: NFMLTQPHSVSESPGKTVTISCTRSSGSIASNYVQWYQQRPGSSPTTVIYEDNQRPSGVPDRFSGSIDSSSNSASLTISGLKTEDEADYYCQSYDSSNVVFGGGTKLTVL
notes: human IgG1
Consider B3, for which, in experiment [3], the Kd is 737 nM, the dissociation rate constant (koff) turned out to be 0.0254 s⁻¹ and the kon came out at 34400 M⁻¹ s⁻¹. Besides, in experiment [4], the binding result is given as “no binding (tested: 200 nM (highest of the series))”. For the same molecule, in experiment [5], the affinity, expressed as Kd, was 97.9 nM; the dissociation rate constant (koff) turned out to be 0.0498 s⁻¹; the kon was 509000 M⁻¹ s⁻¹.

B4: H18 (antibody, V domains shown)
VH: QVQLQESGPGLVKPSETLSLTCTVSGGSVSSGGYFWSWIRQPPGKGLEWIGCIYYSGSTNYNPSLKSRVTISVDTSKDQFSLKLSSVTAADTAVYYCARQLWLRGRFDYWGQGTLVTVSS
VL: NFMLTQPHSVSESPGKTVTISCTRSSGSIASNYVQWYQQRPGSSPTTVIYEDNQRPSGVPDRFSGSIDSSSNSASLTISGLKTEDEADYYCQSYDSSNVVFGGGTKLTVL
notes: human IgG1
Consider B4, for which the Kd stood at 134 nM in experiment [3], 231 nM in experiment [6] and 332 nM in experiment [4]. The koff in experiment [3] was found to be 0.00624 s⁻¹; in experiment [6], 0.00283 s⁻¹; in experiment [4], 0.00612 s⁻¹. The kon in experiment [3] is 46500 M⁻¹ s⁻¹; in experiment [6] it was 12300 M⁻¹ s⁻¹; in experiment [4] it was 18400 M⁻¹ s⁻¹.

B5: H4 (antibody, V domains shown)
VH: EVQLVESGGGLVQPGGSLRLSCAASGFTFSSYWMSWVRQAPGKGLEWVANIKQDGSEKYYVDSVKGRFTISRDNAKNSLYLQMNSLRAEDTAVYYCASQLWLRGAFDIWGQGTMVTVSS
VL: NFMLTQPHSVSESPGKTVTISCTRSSGSIASNYVQWYQQRPGSSPTTVIYEDNQRPSGVPDRFSGSIDSSSNSASLTISGLKTEDEADYYCQSYDSSNVVFGGGTKLTVL
For B5, the values for the dissociation constant (Kd) in experiment [3], in experiment [4] and in experiment [5] were 355 nM, 503 nM and 29.9 nM, respectively. Also, the values for the koff in experiment [3], in experiment [4] and in experiment [5] were 0.0102 s⁻¹, 0.0134 s⁻¹ and 0.0105 s⁻¹, respectively. Besides, the on-rate (kon) in experiment [3] was determined as 28800 M⁻¹ s⁻¹; in experiment [4], 26700 M⁻¹ s⁻¹; in experiment [5] it was 351000 M⁻¹ s⁻¹.

B6: H14 (antibody, V domains shown)
VH: QVQLQESGPGLVKPSQTLSLTCTVSGGSISSGGYYWSWIRQHPGKGLEWIGYIYYSGSTYYNPSLKSLVTISVDTSKNQFSLKLSSVTAADTAVYYCARKGWLRGAFDIWGQGTMVTVSS
VL: NFMLTQPHSVSESPGKTVTISCTRSSGSIASNYVQWYQQRPGSSPTTVIYEDNQRPSGVPDRFSGSIDSSSNSASLTISGLKTEDEADYYCQSYDSSNVVFGGGTKLTVL
notes: human IgG1
As for B6, in experiment [3], the Kd came to 451 nM, the koff came out at 0.0205 s⁻¹ and the kon came to 45500 M⁻¹ s⁻¹. In experiment [4], the Kd amounted to 302 nM, the dissociation rate constant (koff) was 0.0151 s⁻¹ and the kon was 49900 M⁻¹ s⁻¹. In experiment [5], this molecule gave a Kd of 34 nM, a koff of 0.0182 s⁻¹ and an association rate constant (kon) of 536000 M⁻¹ s⁻¹.

B7: R1-26 (IgG) (antibody, V domains shown)
VH: EVQLVESGGGLVQPGGSLRLSCAASGFTFSSYWMSWVRQAPGKGLEWVANIKQDGSEKYYVDSVKGRFTISRDNAKNSLYLQMNSLRAEDTAVYYCARGQLGPWVGVDYWGQGTLVTVSS
VL: NFMLTQPHSVSESPGKTVTISCTGSSGSIASNYVQWYQQRPGSAPTTVIYEDNQRPSGVPDRFSGSIDSSSNSASLTISGLKTEDEADYYCQSYDSSNWVFGGGTQLTVL
With B7, the “pseudovirus neutralization IC50 (pseudovirus displaying WT SARS-CoV-2 S-protein)” value in experiment [7] was 2.7 nM. Binding in experiment [8] was put at a Kd of 3.8 nM.

B8: H5 (antibody, V domains shown)
VH: QVQLVESGGGLVKPGGSLRLSCAASGFTFSDYYMSWIRQAPGKGLEWVSYISSSGSTIYYADSVKGRFTISRDNAKNSLYLQMNSLRAEDTAVYYCARAKWLRGHFDYWGQGTLVTVSS
VL: NFMLTQPHSVSESPGKTVTISCTRSSGSIASNYVQWYQQRPGSSPTTVIYEDNQRPSGVPDRFSGSIDSSSNSASLTISGLKTEDEADYYCQSYDSSNVVFGGGTKLTVL
notes: human IgG1
Consider B8, for which the binding result in experiment [4] is “no binding (tested: 200 nM (highest of the series))”. In experiment [5], the Kd was 1500 nM, the off-rate (koff) is 0.195 s⁻¹ and the kon was 129000 M⁻¹ s⁻¹.
